Positions count from the first letter of the chain named. In names and notes the source's numbering stands.
T1: Etk/Bmx (epithelial tyrosine kinase), wild type (UniProt P51813 1-675)
T1 construct: Plasmids after Tsai et al. 2000; also called wt-Etk
T1 sequence (looked up): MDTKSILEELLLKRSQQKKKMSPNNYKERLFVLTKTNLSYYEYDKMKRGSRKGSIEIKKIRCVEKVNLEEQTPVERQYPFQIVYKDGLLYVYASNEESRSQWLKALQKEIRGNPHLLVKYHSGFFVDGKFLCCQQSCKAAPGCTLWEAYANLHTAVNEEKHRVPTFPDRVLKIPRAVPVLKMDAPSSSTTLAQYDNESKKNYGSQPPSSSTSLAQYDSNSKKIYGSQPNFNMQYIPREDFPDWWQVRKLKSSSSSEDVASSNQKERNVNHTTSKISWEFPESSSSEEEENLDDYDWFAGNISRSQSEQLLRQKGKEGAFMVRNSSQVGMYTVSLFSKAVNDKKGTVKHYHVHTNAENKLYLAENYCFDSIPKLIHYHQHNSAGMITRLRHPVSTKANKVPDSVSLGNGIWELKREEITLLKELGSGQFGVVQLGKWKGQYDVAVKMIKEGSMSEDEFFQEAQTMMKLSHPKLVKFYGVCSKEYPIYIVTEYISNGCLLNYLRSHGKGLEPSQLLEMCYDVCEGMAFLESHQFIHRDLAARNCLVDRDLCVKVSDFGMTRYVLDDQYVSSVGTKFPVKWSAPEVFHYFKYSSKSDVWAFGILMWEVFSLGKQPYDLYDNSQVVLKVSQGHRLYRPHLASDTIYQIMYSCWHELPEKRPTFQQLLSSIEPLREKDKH

T2: T7-tagged Etk/Bmx (UniProt P51813 1-675)
T2 construct: not shown: T7 tag
T2 sequence (looked up): T1 sequence (looked up)

T3: Shc adaptor protein (66, 52 and 46 kDa isoforms) (human, UniProt P29353 1-583, limits assumed)
T3 construct: Full-length endogenous protein in cell lysates; three isoforms detected together; also called Shc adapter protein
T3 sequence (looked up): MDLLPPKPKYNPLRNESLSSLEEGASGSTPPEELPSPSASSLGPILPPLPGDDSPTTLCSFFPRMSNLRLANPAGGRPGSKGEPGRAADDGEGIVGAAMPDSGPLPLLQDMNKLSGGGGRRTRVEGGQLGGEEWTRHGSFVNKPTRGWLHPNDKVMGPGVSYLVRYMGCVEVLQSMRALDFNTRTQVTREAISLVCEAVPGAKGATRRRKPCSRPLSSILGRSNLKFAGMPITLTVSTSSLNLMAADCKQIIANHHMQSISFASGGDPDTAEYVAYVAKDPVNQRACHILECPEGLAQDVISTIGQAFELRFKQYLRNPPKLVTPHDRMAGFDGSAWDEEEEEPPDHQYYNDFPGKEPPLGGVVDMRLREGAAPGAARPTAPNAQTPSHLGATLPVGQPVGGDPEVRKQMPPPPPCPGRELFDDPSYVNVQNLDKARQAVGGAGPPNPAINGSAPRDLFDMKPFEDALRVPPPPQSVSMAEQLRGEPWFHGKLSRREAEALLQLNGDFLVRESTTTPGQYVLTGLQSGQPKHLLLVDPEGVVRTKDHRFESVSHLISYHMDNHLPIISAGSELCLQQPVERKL

B1: wild-type human protease-activated receptor 1 (wt hPar1) (receptor, UniProt P25116 42-425, looked up)
chain: SFLLRNPNDKYEPFWEDEEKNESGLTEYRLVSINKSSPLQKQLPAFISEDASGYLTSSWLTLFVPSVYTGVFVVSLPLNIMAIVVFILKMKVKKPAVVYMLHLATADVLFVSVLPFKISYYFSGSDWQFGSELCRFVTAAFYCNMYASILLMTVISIDRFLAVVYPMQSLSWRTLGRASFTCLAIWALAIAGVVPLLLKEQTIQVPGLNITTCHDVLNETLLEGYYAYYFSAFSAVFFFVPLIISTVCYVSIIRCLSSSAVANRSKKSRALFLSAAVFCIFIICFGPTNVLLIAHYSFLSHTSTTEAAYFAYLLCVCVSSISCCIDPLIYYYASSECQRYVYSILCCKESSDPSSYNSSGQLMASKMDTCSSNLNNSIYKKLLT
notes: whole, on cells; Tested as protein in cell lysates (pull-down, co-immunoprecipitation, antibody array)
B2: GST-PH-Etk/Bmx (other, UniProt P51813 1-111, looked up)
chain: MDTKSILEELLLKRSQQKKKMSPNNYKERLFVLTKTNLSYYEYDKMKRGSRKGSIEIKKIRCVEKVNLEEQTPVERQYPFQIVYKDGLLYVYASNEESRSQWLKALQKEIR
notes: domain: PH domain; Made as in Chen et al. 2001; also called GST-Etk-PH; GST-Etk/Bmx; not shown: GST tag
B3: HA-tagged wt hPar1 (receptor, human, UniProt P25116 42-425, looked up)
chain: B1 chain
notes: whole, on cells; Tested in lysates of transfected cells; also called HA-wt hPar1; HA-wthPar1; not shown: HA tag added downstream of the ATG start codon
B4: Y381A hPar1 (receptor, human, UniProt P25116 42-425, looked up)
chain: B1 chain with Y340A
notes: whole, on cells; also called hPar1-Y381A
B5: Y383A hPar1 (receptor, human, UniProt P25116 42-425, looked up)
chain: B1 chain with Y342A
notes: whole, on cells
B6: Y381A & Y383A hPar1 double mutant (receptor, human, UniProt P25116 42-425, looked up)
chain: B1 chain with Y340A, Y342A
notes: whole, on cells; also called Y381A&383A hPar1

Tests used:
c-Yes = c-Yes (UniProt P07947 2-543); assay: antibody array with MDA-MB-435 lysates before and after PAR1 activation, biotinylated anti-PAR1 detection
c-Yes, sequence (P07947 2-543 limits assumed): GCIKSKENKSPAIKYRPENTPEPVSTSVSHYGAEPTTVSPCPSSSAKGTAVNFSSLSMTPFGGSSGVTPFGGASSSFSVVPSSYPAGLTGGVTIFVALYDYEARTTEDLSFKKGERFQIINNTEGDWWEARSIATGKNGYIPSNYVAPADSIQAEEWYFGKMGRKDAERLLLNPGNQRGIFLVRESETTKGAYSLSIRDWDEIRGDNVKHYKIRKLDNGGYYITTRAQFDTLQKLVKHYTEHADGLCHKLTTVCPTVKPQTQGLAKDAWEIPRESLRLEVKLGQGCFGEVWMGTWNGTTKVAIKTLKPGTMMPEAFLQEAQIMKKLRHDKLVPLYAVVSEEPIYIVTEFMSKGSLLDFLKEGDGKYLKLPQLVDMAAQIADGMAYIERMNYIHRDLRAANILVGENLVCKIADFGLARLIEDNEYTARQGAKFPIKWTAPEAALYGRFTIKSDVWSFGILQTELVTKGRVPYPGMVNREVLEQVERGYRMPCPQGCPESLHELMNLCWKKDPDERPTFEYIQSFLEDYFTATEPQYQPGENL
Method: (§1) Antibody array: A custom-made antibody array (hypromatrix) containing thirty antibodies against various proteins was prepared (FIG. 1). The antibodies were immobilized on a membrane, each at a pre-determined position, while retaining their capabilities of recognizing and capturing antigens as well as antigen-associated proteins. MDA-MB-435 cells were activated for 10 min with thrombin (1 U/ml). Untreated or activated cells were lysed with Triton extraction solution: 15 mM Tris, pH 7.5, 120 mM NaCl, 25 mM KCl, 2 mM EGTA, 2 mM EDTA, 0.1 mM DTT, 0.5% Triton X-100, […] and 0.5 mM PMSF. Protein extract was incubated on pre-blocked membrane for 2 h at room temperature. The antibody array was washed with TBST and incubated with biotinylated PAR₁ antibody (ATAP) for 2 h at room temperature. The antibody array was washed again with TBST, and the membrane was incubated with HRP-conjugated streptavidin for 1 h. Protein-protein interactions were detected by ECL and exposure to X-ray film.
(§2) To detect the putative mediator(s) linking PAR1 to potential signaling proteins, custom-made antibody-array membranes were examined. Aggressive breast carcinoma MDA-MB-435 cells (with high hPar1 levels) were incubated with the antibody-array membranes before and after PAR₁ activation (15 minutes). […]

[1] = biological target: T1, Etk/Bmx (epithelial tyrosine kinase), …; assay: as above
Method: as §1, §2

[2] = biological target: T1, Etk/Bmx (epithelial tyrosine kinase), …; assay: Etk/Bmx expressing cell lysates on GST-PAR2 C-tails
[3] = biological target: B1; assay: cell lysates on GST-Etk-PH column, anti-PAR1 blot
Method: The IP was performed using anti-PAR1 (ATAP, Santa Cruz, Calif.). FIGS. 7B and 7C are photographs of gels showing peptide competition for PAR1 binding to GST-PH-Etk/Bmx.
GST fusion protein columns. Fusion proteins were purified from transformed Escherichia coli bacteria that had been stimulated with isopropyl-β-D-thio-galactopyranoside (IPTG) at a concentration of […]. Bacteria were lysed according to published procedures, and then immobilized on glutathione Sepharose beads (Pharmacia). Briefly, MDA-MB-435 cell lysates were applied to GST-PAR1C-tail or GST control columns. After 2 h binding periods to the designated protein/s cell lysates to the columns, a washing step was performed. The washes (×3) were carried out using a “wash buffer” including: 100 mM NaCL, 20 mM EDTA, 10 mM Tris, pH 8.0 and 1% Triton ×100. This step was performed in order to wash out all non-specific proteins, leaving the GST-PAR₁-C-tail column firmly bound to targeted cell lysate proteins. Next, elution of bound proteins was performed via the addition of gel “sample buffer” and appropriate boiling. The samples were run electrophoretically on SDS-PAGE gels, followed by immunoblotting with the indicated antibodies and ECL detection. GST-PH-Etk/Bmx. The PH domain in Etk/Bmx was bound to GST column as previously described (Chen R, et al. (2001) Nat Cell Biol. 3: 439-444). […]

T7-tagged Etk/Bmx = biological target: T2, T7-tagged Etk/Bmx; assay: anti-HA immunoprecipitation, anti-T7 blot
[4] = biological target: T3, Shc adaptor protein (66, 52 and 46 kDa …); assay: association of Shc with PAR1 Y/A mutants (method not detailed)

B1: binds (c-Yes); binds [1].

SHDFRDHAKNALLCRSVRTVKQMQVSLTSKKHSRKSSSYSSSSTTVKTSY (other, human, UniProt P55085 348-397, looked up, domain: PAR2 C-tail; not shown: GST tag) [GST-PAR2 C-tail wt]: binds [2].

B2: binds [3].

B3: binds (T7-tagged Etk/Bmx).

B4: binds [4].

B5: binds [4].

B6: binds [4].
